{"source": "the DeepSol protein solubility set"}
{"test": "soluble on expression in E. coli; label from the status in PepcDB or PDB records"}
{"sequence": "MPQYKGSREVISIHVGQAGVQIGNACWELFCLEHGIQPDGYHVEDDTYDEETETINTFFAETAGGKHVPRCLFVDLEPTVVDEVRTGTYRSLFHPEQLLSGKEDAANCYARGRYTIGREMIDVVMDRVKRLAENCNGLQGFVIFHSFGGGTGSGFLSLLMERLSTEYGKKPKLEFAIYPAPQVSTSMVEPYNSILMTHTTLEHSDCTFMVDNEAIYDICRRNLDLARPTYTNLNRLVAQIISSITASLRFEGALNVDLTEFQTNLVPYPRIHFPLVTYAPLVSAERASHEQNTVSDMTHACFEPGYQMVKCDPRRGKYMAVCLLYRGDVVPKDINSAIAAVKTKRTVQFVEWCPTGFKVGINYQPPTVVPGGDLGKQTRSVCMISNTTAIAEAWARLDHKFDLMYAKRAFVHWYVGEGMEEGEFSEAREDMAALEKDYEEIGEDELPDDIDDQSYRGRSSGSRY", "soluble on expression in E. coli": "not soluble"}
{"sequence": "AIAARPPPDPLYILRGSGASVNALHFCCDGDGPPLLYSGSGKGAVHVWNLSTRRAERVLESHAGNSVIWLNTFNNSRSCLISQGRDMRVCVWDLSEGRSAVTDSLHTGSVGFCQCSLLGSRLGSTLLAHPTQHMEEVSVVEMSSWTQVCSLKPDSNLGMLMSMKMWQADSGPVLCAGYEDGSVVLWDVSHRRPFSLLKVHPEPVMSLDVDVCRQKGISGSSENILQSWRLDNQQSLQMHDSIQMTNPGVSQLRIRADGKILASAGWDNNIRVFGWKKLKPLAVLQHHTDMVNSVAFSDHQDPTQRLLAAGSKDQRISVWSIYSES", "soluble on expression in E. coli": "soluble"}
{"sequence": "LARMSEREIDISLGTTVGRSLWRLAQGHDDREVAPRAIAKQISVEHTYPKDLVTSRAVDTAIIRASRESHRRLLDDGRGARTVSVKLRMADFRIESRSATLPYATDNLDTVTATALKLARYPDEVGPIRLVGVGLSGLEDARQDILFPELDRVVPVKDTDFEVGVSDPHDSDLEISTTDESPTAIGWRATQDIWHPDYGHGWVQGLGHGKITVRFETRTTGPGKVRTFDTNDALLSSADPINSLDWS", "soluble on expression in E. coli": "not soluble"}
{"sequence": "MSLEIGEKLRNLRIQKNLTQEELGERTDLSKGYISQLERDLSSPSMETFFSILEVLGVTPEQFFSQQPLEQKIVYNEEESTLYYDEEHGYELKWLIPASNEKEMEPVIITFDKNGEYKTFEPSLSETFIYVIDGSIRLTLGEATYIAKKGQTMYYQATEPHQISNNGRGKSRALIVATESYLEGGSHHHHHH", "soluble on expression in E. coli": "soluble"}
{"sequence": "MSLDSPFGPEDDICILHFNDVYNIEEDVNGTGGVARFVEALKSFRSLNPLLLFSGDVFNPSIMSVTTKGRHMVPFLNMMRVHTACFGNHDFDFGVDHLEYLAGSCNFQWILSNVYDAYTGEPLANARTYRLFEWQGRRIGIMGLVEKDWLKTLPTISEEDVIYKDFVEEANRISKILREKDAELIIALTHMRAPNDELLAKGADDIDLILGGHDHEYYGVKEIGNSVVAKSGTDFRDLTMIVIKPGKHCLVCPNSDSKLHLESCRYSSFSLDQPQNIYEERLIPNNKDGGDIYLREGHHHHHH", "soluble on expression in E. coli": "soluble"}
{"sequence": "MQGLYIYGEVGRGKTMLMDLFFSCLPQKRKKRAHFNDFMADVHERINIYRQASKDGKTGQKTPILAVVEDLAQEAQVLCFDEFSVTDIADAMVLGRLISALFDKGIFFVATSNVAPDNLYYNGLEHHHHHH", "soluble on expression in E. coli": "not soluble"}
{"sequence": "MGSDKIHHHHHHMSQTLLALYGLKWNPFSADLPIAAVSVPPKVEDFCWRIEHALVREGGFALIQGDPGTGKSVILRLLAERLSRLPDLTVGAIHHPQSNLADFYRELGDIFAVSLKPSNRWGGFKALRERWLAHLEATRRRPVLLIDEAQEMNAPVLCELRLLSSARFDSQSLLSVLLAGDARLTEKLRREELVPLGSRIRVRLHTESASRNELLGCLEHLMTEAGNAGLMTAGLCQTLCDHAMGNYRVLTQMAAELLAAATQRQLDQLDEKLFLELYGPAQQPARRKAAH", "soluble on expression in E. coli": "not soluble"}
{"sequence": "MRKTFRQPHALAAMVIAMLMAQLSGCATTSAQTSPTEFGAGLPEAEDHSESAEPQSVEAEVIDERYADVWEKIQHARTIDVHDDAEVRKQRNFFDDKQKFMTQVTQRAEPFLYYIVSQLEARNMPLELALLPIVESGYNPLAQANGPAGLWQMIPATGRNFGLTINSAYDGRKDALASTDAVLDYLQHLYNTLGNDWINAVAGYNSGELVIKAAIDRNKAKGKPTDFWSLNIPARQVQTVPKWLAFIQIIREPSHYNLKVMPIANRPFLERLPAPNGVEISQIANAAGLTKAEFKTYNPGYRQSVIPSKGKYQIALPIENIGHYQENQHKLYAQKRYDSQTYIVKSGDSLGTIAAKFDLSVKELKQANNLTSDRLKIGQELTLLTPMAANDNEPEPVKTKANTDKSSTKANASSTKATSSKSTDKPVAKAKTYKVKSGDSLDKIARKSKVKLADLMKWNQLNAKSIIKPGQELKISELEHHHHHH", "soluble on expression in E. coli": "soluble"}
{"sequence": "MGSDKIHHHHHHMDIKQLQYLCNLEKERHFGRAAEASFVSQPTLSMRLKNLERELDLALINRGNNFEGFTAEGERVLAWAREIVSVYQGLKLEVASLKRGVSGVLRIGAVPQSSIALSSLLAAVNKEYPQLDFQISLFSADQLLEALNAHSVDVGIGFFEFSTLQELHFQASPLTEQGVDLLFHPHHFPQLVGDAPLALDALSDVPLCLAEASRYFRRYLDSHFREMGVSPWVKVESASVLQLIQSVYVGLGCGIVPHGSLIPEMTPALTLRPLQFPPMRRQPAVVIAQAGRATALAQNFFDVAQEWLQAQS", "soluble on expression in E. coli": "not soluble"}
{"sequence": "MFGVKDAIFKIKRSIAGTDSSDSTAYTTASESSPQLKDSHNPFRNKTTSERTIVEEGSLPPVRLNGYLPSTKNKLLTPEMCDEIRTLMPTRIQLYTEWNLLYSLEQHGSSLHSLYSNVAPDSKEFRRVGYVLVIKDRKNGIFGAYSNEAFHPNEHRQYTGNGECFLWKLDKVPDVNISEKEESEQEGKEGKEEGDKEERWRFSGYPYTGVNEFAIYCTSEFLSMGAGDGHYGLLCDDGLLHGVSNPCQTYGNEVLSKEGKKFSIVALEVWRVG", "soluble on expression in E. coli": "soluble"}
{"sequence": "MSLIQTIENRLINGGELTLEEALLLASSADKEALYEAAHRITRYFMGDKFDTCSIINAKSGNCPEDCKWCAQSRHYAASIEKYGLLSAAVCAEQAAYNRRQGIGRFSLVASGRTASMNEIRQMAESYRAIKQRTDIKCCASLGLLSEEKLQILFDNGVTTYHCNMETAPSFFPSLCSTHTQDEKLATIRAARRVGMRVCSGGIIGMGETMEQRIEFAFYLHSINVYSIPINILQPIPGTPLERTLPLSEEEYLTTVALFRLINPRAFLRFSGGRAQLSPAVQRKAIYIGINAAITGDLLTTTGSKAAEDMQLVRECGFQVTNDTDWEVSYDHEGHHHHHH", "soluble on expression in E. coli": "not soluble"}
{"sequence": "MGSDKIHHHHHHMSYELARVPRGEHHFHSVRVRTGDVLGLIEKTAFFELDDTLFVYPFYQRFSYQVNERHQEDGVSGSSPIHQHHSSVAASVRNYQPGDRFAALDWKTSARRSQLMTKEFEPSRSKNLFLLMDRFSSDAFEEVVSVTASILHSVLKNGAGAGLASIGKEKNIFPIQEGDQHFKHMLRHLAIAHCDAADPISRYAREELGKPSVRQADQVVVTGQLTEDMLHLAEIGGGRVTVILAKEKDAELSQAENVMIERMMKRQIRVRIMRGGRVSRVV", "soluble on expression in E. coli": "not soluble"}
{"sequence": "GMTQTTPQPDPSRLRDELVRLHGKASPEWDSLVRLDPRFVDAYLKFAGVPQRRNHLDDKTRAFIALAADACATQLYAPGVARHIERALSFGATREELIEVLELVSTIGIHTSNVGVPVLLEVLEEEGLRKGAPPLDERRQKLKAEFETNRGYWHPTWEGLLELDPDLFEAYVEFSSVPWRTGVLSPKIKEFMYCAFDASATHLYVPGLKLHIRNALRYGATAEELMELLEIVSVTGIHGAELGAPLLEAALKRSGAAAGEPHA", "soluble on expression in E. coli": "soluble"}
{"sequence": "SLSPRRLRLLLVDENPTARAVIGRRLSHRHYDVTVVEDGFAAQKTLIIQPSDIILIDMDLQLLPAIGTMEKIRAAHPAGHACIVMIGGASDTPKMIAALDAGADDHIVKPFDFDMLDARLRRVHARAEREG", "soluble on expression in E. coli": "not soluble"}
{"sequence": "MDPIASVLEKVKSFTKSSQDLVSRHFGFHENPSRLNPIDILKRLQRETFSDLMKLRERQEKVERIISSQKLSKGGPFQETSTHVRGEVDVLGAILLMGNTDEESFNGLNKEGVRPGLLSRFVFETSLRETDRLVAELVAGYNGAGSHRDFLGGELSLAKVFYKADINDWFSAIAIPVGAHFRDIEASTVSSYQGMSLTEVSELGPPLLSQHNGSAIGLTFRKSNITASLAQSMSNVEVEQGLTAPNRCFRTFGQVTCHILRSLKLSLLGCHQVLTSSSNLHSVGAITVPVSFLRRHTATEPEPSAPPLEMSRNMNHVSSSSIALKLDSLMDESTKLGGWIEIQNSREKQVKWSVSITDNPEDEVGWGMSVGGVVDGSRNHDQFQVESYLKFNIGDRFRLSPCLVYHTNSDGRTIGLMLKSHWSL", "soluble on expression in E. coli": "soluble"}
{"sequence": "MKKQNPWIYLNEEEKNQILNFSESYKKFISKFKTEREVTAYALDKAKKLGFINAEEKKNLMPGDKIFYTCREKSVAFAIIGKNPIEDGMNFIVSHTDSPRLDAKPSPISEENELTFIKTNYYGGIKKYQWLSTPLSIRGVVFLKNGEKVEINIGDNENDPVFVIPDILPHLDRKIQRNKKSDEIVEGENLKILIGSLPIETKEKNKVKLATLQLIKEKYKIEEEDFVSSEIEIVPAGTAKDVGFDKALIGAYGQDDKICVFTSLESIFDLEETPNKTAICFLVDKEEIGSTGSTGLDSRYLEYFVSDMIFKIKKSEYNNLHVQKALWNSKSISADVCAAINPLFSSVHDEQNAPQLGYGIPIMKYTGHGGKSMASDADAELVSYIRQLLNKNNIAWQVATLGKVEEGGGGTVAKFLAGYGIRTIDMGPAVISMHSPMEITSKFDLYNAYLAYKAFYRE", "soluble on expression in E. coli": "soluble"}
{"sequence": "MSLTKVSAFFSTCKAGVFLGWDRNIDTSIAYTDGYSNRLDIISYDLCNWNGNNDSSSISWDSASTIRDLQKPNIPLIKQYKGPYAHLIKNVIISAHMPCPTGGTSNGSISPQDFATLANTKIQDINSSSPWFLQNYKAIVSKVGDGLEYYGHVGTVYFRPFHEVNGNWFWWGDKDVSQYKQLWINLHDYLVSKNSGCRGLTWLKFCYAPNSGKNAALYYPGDDYVDMVGMDAYSDNPSTDTYVKRAYAELTGGTYNGVTYPGIDKPFGFPELGPNVGGDYVDNKNRLIKKFDYKRWSDAIKLNYPKASYFIIWNGGYEPRNNDNGTSLFNMSYEGHHHHHH", "soluble on expression in E. coli": "soluble"}
{"sequence": "MGSDKIHHHHHHMNFVTTIGLEVHVELKTNSKIFSPSPVQFGSEPNANTNVIDWGYPGVLPTPNKGVVEAGIKAATALHAEIEHHTYFDRKNYFYPDNPKAYQITQHEKPIAHDGWIEIEVDGKKKKIGIEEMHIEEDAGKNTHENDYSYVDLNRQGTPLIEIVSKPDIASPEEAYAYCEALRQRIQFTGVSDVKMEEGSMRVDVNISIRPAGSDKYGVKTEMKNLNSFNYVRKSLEYEEQRQQQVLMAGGKIQQETRRFDETTGQTILMRVKEGSDDYRYFPEPDIPAVDIDDDWIASVKKTIPEMPGSRRERYINEFGLTAYDAGVLTQTKEMSDFFDATVAEGADPKLASNYLQGDVNAYLNEHKVDLLATDLTPTNLAGMIKMISDETISSKIAKKVFKAIMAGSEPVQWVNDKGLVQLSDPAKLQPIVDDVLDNNQQSIDDFKNGKDRAVGFLVGQIMKKTRGQANPKVVNQLLMTSLKAR", "soluble on expression in E. coli": "not soluble"}
{"sequence": "MGSDKIHHHHHHSDVVDLEPVDKFSELTAYGTEERCELAVVGAYDAAQCGMYVDPNDFGWARGYPFGAASILQGEMRGEDMNLTAQFYDYTYSATYNLTTANNVAMWETSFEAINRYNTVYAGIEGAVAAGVITEEKGNQYKGECLFLRALTYHNLMIHYALPYNVEGNNNYGMPIYTKAVNDPSQLAEQQSIGRSTVKDTYDQILSDLNNAESMLPDIIDADKIGRASKGAAIALKTRVYLHMRDWNNVVTEAKKLEGGRFILETNPATPFVSYKDNQESIFSIPNDSQDNGSVNGAMSAMMSAREGGRAMCPTSPTLYNSKFWKGDDKRRNLVLYRASDDYYFCDKYQNPQTREEYAPILRYAEVLLNEAEAAARAGDKTLALEKLNQVRDRSLADPATQTYKASDFANTKALVEAILWERRIEFQGEGRRWEDIHRLAADDLLPSGGIPAKIEYNNVKNQGAFVVGGEVKAEWFGNSKQFIPYTDKRFIWPIPLNDILRNPTLAAQQNAGW", "soluble on expression in E. coli": "not soluble"}
